# In article PMC5071567:
# Experiments:
# [1] = target: transthyretin (UniProt P02766); conditions: cited from earlier work
# [2] = target: megalin (LRP-2) (mouse (endogenous in cultured hippocampal neurons)) (UniProt A2ARV4)
# Sequence of megalin (LRP-2) (mouse (endogenous in cultured hippocampal neurons)) (A2ARV4 26-4660): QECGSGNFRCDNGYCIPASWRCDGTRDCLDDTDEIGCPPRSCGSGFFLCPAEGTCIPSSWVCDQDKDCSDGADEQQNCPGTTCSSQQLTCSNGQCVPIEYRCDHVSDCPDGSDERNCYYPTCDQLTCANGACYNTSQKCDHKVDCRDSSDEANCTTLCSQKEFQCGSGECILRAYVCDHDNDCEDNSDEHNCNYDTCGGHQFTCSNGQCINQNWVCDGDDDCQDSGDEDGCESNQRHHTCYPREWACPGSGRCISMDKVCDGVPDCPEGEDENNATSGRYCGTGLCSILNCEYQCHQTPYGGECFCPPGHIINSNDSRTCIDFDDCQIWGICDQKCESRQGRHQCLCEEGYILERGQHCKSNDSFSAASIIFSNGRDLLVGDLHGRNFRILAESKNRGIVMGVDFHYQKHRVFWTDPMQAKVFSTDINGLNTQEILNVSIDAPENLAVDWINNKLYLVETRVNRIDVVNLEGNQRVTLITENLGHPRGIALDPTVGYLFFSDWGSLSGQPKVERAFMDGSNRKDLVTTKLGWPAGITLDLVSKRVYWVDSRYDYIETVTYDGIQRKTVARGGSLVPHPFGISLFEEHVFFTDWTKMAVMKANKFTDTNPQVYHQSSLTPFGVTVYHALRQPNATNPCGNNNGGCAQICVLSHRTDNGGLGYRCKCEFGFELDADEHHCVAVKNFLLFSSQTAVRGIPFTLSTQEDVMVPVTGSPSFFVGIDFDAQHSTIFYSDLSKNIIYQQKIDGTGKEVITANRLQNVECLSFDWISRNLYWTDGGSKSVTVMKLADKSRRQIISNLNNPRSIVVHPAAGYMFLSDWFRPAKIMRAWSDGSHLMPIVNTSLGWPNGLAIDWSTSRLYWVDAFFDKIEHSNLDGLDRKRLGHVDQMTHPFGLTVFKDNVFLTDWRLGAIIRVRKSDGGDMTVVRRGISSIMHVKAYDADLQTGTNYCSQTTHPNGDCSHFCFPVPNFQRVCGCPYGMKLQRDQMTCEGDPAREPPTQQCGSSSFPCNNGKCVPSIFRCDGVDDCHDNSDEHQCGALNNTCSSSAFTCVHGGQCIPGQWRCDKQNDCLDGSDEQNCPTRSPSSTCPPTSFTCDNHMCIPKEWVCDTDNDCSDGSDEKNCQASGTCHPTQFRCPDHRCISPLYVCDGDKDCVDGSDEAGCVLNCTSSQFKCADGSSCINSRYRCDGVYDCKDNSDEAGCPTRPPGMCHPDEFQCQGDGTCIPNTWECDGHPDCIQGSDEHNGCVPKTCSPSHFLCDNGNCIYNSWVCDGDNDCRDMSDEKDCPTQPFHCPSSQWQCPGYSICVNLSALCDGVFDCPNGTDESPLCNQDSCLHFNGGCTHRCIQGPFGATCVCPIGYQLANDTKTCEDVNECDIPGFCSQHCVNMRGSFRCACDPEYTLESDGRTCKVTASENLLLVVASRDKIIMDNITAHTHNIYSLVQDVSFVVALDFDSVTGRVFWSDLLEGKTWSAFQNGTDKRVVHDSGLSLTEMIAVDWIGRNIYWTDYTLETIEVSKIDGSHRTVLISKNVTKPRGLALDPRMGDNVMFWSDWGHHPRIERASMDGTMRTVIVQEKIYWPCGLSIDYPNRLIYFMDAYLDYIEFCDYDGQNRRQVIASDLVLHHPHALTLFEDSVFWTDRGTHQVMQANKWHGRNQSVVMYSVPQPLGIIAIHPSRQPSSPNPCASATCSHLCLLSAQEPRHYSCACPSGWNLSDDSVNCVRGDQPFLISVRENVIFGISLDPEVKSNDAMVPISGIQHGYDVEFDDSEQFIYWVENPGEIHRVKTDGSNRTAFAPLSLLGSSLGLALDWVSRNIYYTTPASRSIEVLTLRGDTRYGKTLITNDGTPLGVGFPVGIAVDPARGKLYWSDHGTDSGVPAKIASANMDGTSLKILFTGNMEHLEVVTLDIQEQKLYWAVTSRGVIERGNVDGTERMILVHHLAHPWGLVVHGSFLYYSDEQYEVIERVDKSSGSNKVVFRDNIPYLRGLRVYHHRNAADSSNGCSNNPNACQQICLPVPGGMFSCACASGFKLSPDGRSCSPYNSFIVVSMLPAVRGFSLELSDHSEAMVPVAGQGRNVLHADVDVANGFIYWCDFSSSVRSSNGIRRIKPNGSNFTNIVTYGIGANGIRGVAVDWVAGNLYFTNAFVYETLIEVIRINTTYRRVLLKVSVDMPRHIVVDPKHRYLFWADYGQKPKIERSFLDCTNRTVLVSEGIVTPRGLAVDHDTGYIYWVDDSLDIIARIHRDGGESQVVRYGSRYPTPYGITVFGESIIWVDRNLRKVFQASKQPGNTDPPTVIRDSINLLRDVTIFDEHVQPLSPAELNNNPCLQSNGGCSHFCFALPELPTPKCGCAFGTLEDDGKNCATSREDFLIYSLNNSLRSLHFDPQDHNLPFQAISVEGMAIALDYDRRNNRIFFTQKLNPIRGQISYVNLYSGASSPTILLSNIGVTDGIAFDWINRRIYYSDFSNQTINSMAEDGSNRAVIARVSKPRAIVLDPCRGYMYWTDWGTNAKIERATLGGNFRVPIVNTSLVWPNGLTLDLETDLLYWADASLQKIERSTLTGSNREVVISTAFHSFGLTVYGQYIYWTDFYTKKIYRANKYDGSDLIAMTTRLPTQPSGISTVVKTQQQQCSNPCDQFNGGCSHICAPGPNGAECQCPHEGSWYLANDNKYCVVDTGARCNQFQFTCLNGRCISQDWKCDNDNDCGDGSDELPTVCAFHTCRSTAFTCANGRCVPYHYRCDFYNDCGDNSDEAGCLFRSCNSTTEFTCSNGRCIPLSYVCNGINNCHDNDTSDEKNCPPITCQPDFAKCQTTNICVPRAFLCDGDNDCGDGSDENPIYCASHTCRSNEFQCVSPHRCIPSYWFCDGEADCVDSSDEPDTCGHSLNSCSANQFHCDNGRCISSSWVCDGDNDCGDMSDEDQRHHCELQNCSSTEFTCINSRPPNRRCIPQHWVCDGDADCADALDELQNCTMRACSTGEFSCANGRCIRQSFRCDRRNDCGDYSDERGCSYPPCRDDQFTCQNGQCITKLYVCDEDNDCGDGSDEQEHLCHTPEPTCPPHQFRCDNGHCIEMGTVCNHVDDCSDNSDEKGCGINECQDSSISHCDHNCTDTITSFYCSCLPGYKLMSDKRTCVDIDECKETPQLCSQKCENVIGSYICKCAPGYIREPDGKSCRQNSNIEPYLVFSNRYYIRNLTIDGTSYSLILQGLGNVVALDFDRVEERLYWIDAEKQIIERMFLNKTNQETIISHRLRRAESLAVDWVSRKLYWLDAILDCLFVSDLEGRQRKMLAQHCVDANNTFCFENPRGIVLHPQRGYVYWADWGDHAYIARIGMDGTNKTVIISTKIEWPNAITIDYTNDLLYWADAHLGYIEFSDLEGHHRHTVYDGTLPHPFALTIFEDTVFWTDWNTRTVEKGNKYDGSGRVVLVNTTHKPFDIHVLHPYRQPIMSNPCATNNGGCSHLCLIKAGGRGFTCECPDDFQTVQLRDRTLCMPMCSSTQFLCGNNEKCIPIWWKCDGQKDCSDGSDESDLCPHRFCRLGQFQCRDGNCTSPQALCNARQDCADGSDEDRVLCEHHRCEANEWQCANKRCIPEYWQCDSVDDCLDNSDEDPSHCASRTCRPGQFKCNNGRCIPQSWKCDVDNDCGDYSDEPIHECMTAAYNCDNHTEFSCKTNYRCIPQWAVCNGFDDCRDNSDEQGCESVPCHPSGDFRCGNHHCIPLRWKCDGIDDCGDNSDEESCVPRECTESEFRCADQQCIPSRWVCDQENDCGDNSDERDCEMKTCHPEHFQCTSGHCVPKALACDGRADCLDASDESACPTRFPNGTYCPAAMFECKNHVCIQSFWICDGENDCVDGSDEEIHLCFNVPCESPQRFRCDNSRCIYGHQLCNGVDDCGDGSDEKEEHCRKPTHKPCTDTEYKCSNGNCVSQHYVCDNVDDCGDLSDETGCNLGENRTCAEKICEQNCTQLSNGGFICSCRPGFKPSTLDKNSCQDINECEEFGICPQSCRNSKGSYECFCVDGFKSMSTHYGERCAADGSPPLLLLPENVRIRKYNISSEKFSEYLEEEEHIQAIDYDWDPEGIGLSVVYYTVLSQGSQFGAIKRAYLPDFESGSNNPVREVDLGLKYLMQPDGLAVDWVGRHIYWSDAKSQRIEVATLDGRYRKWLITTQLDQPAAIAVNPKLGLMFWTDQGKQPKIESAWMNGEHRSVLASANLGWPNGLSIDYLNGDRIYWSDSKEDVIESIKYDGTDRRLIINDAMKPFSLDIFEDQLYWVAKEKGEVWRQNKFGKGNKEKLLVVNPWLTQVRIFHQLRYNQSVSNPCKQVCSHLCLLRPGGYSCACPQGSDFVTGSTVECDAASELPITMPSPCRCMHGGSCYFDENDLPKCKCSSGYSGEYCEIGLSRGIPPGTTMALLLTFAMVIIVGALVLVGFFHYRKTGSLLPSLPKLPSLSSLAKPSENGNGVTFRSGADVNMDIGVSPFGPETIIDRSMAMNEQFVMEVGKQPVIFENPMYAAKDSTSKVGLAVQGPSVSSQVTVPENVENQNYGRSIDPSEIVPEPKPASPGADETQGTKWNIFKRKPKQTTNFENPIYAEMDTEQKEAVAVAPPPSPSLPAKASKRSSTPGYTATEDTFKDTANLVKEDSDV
Substance,Kd [1],"activation of Src (phospho-Tyr416) by western blot in TTR KO cultured hippocampal neurons, 30 min after mouse TTR (55 μg/ml) [2]",rise of CREB phosphorylation (Ser133) by western blot in TTR KO cultured hippocampal neurons stimulated with mouse TTR (55 μg/ml) [2],"rise of phosphorylated Akt (Ser473) by western blot in TTR KO cultured hippocampal neurons, 30 min after mouse TTR (55 μg/ml) [2]","rise of phosphorylated ERK by western blot in TTR KO cultured hippocampal neurons, 30 min after mouse TTR (55 μg/ml) [2]"
megalin (from UniProt P98164),500 nM,–,–,–,–
recombinant mouse transthyretin (from UniProt P07309 21-147) (ligand),–,30 to 50%,20%,23%,35%
